Measured values as given in article PMC4865122, “Structural Analysis and Insights into the Oligomeric State of an Arginine-Dependent Transcriptional Regulator from Bacillus halodurans” (PLoS ONE, 2016).

Key:
[1] = target: T1, BhArgR (Bacillus halodurans) (UniProt Q9K973); experiment: EMSA; conditions: 50 mM Tris-HCl pH 7.5, 200 mM NaCl, 10 mM MgCl2, 10 mM CaCl2, 10% glycerol; on ice 40 min; 6% native PAGE in TBE pH 8.8 +/- 10 mM L-arginine, 4 C
T1 sequence: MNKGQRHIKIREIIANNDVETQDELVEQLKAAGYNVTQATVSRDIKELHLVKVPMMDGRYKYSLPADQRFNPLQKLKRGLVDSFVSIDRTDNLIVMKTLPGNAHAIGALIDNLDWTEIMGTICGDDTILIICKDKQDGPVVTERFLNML

BhArgR (ArgR, Bh2777) = target: T2, BhArgR (ArgR, Bh2777) (Halalkalibacterium halodurans, UniProt Q9K973); experiment: SEC-MALS (trimer to hexamer shift); EMSA; conditions: 10 mM L-arginine; SEC-MALS: 20 mM Tris-HCl pH 8.0, 200 mM NaCl, 2 mM MgCl2, 1 mM DTT; EMSA with argG ARG box DNA at 4 C; corepressor; indirect evidence of binding
T2 construct: full length, 149 residues; hexa-histidine tagged in SEC-MALS; trimer (57 kDa) without L-arginine, hexamer (114 kDa) with L-arginine
T2 sequence (Q9K973 1-149): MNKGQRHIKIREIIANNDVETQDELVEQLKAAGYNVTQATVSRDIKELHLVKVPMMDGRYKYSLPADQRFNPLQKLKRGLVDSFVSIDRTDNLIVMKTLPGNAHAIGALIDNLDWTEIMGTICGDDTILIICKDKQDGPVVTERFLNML

[2] = target: the molecule itself; experiment: SEC-MALS; Superdex-200 10/300 GL, 20 mM Tris-HCl pH 8.0, 200 mM NaCl, 2 mM MgCl2, 1 mM DTT; 3~6 mg/ml injected; with 10 mM L-arginine

CCCAGAATACGCTAAGACAACTTTCTTTTTGCTCATGCTAACAATCCCTCCAAAGTGAATATTCATACTCTTGTTATTATTTTTATACATCCACTTGCATAAAAAAAGGCCTGTATAAA (double strand) [119-bp cognate argG promoter DNA]
binding [1]: binds

N=C(N)NCCC[C@H](N)C(=O)O [L-arginine]
SEC-MALS (trimer to hexamer shift); EMSA (BhArgR (ArgR, Bh2777)): it formed a hexamer in the presence of L-arginine in multi-angle light scattering (MALS) studies

B1: Arginine repressor (ArgR, BH2777) from Bacillus halodurans (natural protein, UniProt Q9K973 1-149, looked up)
chain: MNKGQRHIKIREIIANNDVETQDELVEQLKAAGYNVTQATVSRDIKELHLVKVPMMDGRYKYSLPADQRFNPLQKLKRGLVDSFVSIDRTDNLIVMKTLPGNAHAIGALIDNLDWTEIMGTICGDDTILIICKDKQDGPVVTERFLNML
notes: Arginine repressor ArgR (BH2777), Bacillus halodurans, 149 amino acid residues; Met1, Asp2 and Lys3 were in the crystal but disordered, and the model covers residues 4-149; The tag is named for the SEC-MALS sample; Oligomer: trimer without L-arginine, hexamer with 10 mM L-arginine; also called BhArgR; B. halodurans ArgR; source: overexpressed and purified
stoichiometry N [2]: 6
